Results reported in patent US20220119506A1 (NOVOBIND LIVESTOCK THERAPEUTICS, published 2022).

B1: NBX0639 (VHH)
VHH: QVQLQESGGGLVQAGGSLRLSCAASGIVFSSIVMAWYRQAPGKQRELVASITNGGLVNSGDSVKGRFTISRDNAKNTVYLQMNSLKPEDTAVYYCNARRIMTSYWGQGTQVTVSS
notes: on phage in the phage ELISA
B2: NBX0642 (VHH)
VHH: QVQLQQSGGGLVQAGGSLRLSCVASTVTFSRYAMGWFRQAPGKEREVVAGISGSGHRTYYGDFVKGRFTISRDNAKKTVYLQMNNLKPEDTAVYYCAGDLVAKFDSAYRVSYDSWGQGTQVTVSS
notes: on phage in the phage ELISA
B3: NBX0641 (VHH)
VHH: QVQLQESGGGLVQAGGSLRLSCAASGSISNSYVMGWYRQAPGKQRELVATITSGGLTNYAQSLKGRFTISRDNAKNTVYLQMTSLEPEDTAVYYCNARVIFTTYWGQGTQVTVST
notes: on phage in the phage ELISA
B4: NBX0834 (VHH)
VHH: QVQLQESGGGSVQAGGSLRLSCAASESMFRDHNMGWYRQAPGKQRELVATISRGGLINYGDSVRGRFTISRDNAKNTIYLQMNSLKVEDTAVYYCNARRLLTTVWGQGTQVTVSP
notes: on phage in the phage ELISA
B5: NBX0404 (VHH)
VHH: QVQLQESGGGLVQAGDSLRLSCATSGRTFSRYTMGWFRQTPGKEREFVAAISWSGTYYTDSVKGRFTISVDNAKNTVYLQMNSLKPEDTAVYYCASGSRRLYYSSDIDYWGQGTQVTVSS
notes: on phage in the phage ELISA
B6: NBX0405 (VHH)
VHH: QVQLQESGGGLVQAGDSLRLSCATSGRTFSRYTMGWFRQTPGKEREFVAAISWSGTYYTDSVKGRFTISRDNAKNTVYLQMNSLKPEDTAVYYCVVGSRRLYYSSDINYWGQGTQVTVSS
notes: on phage in the phage ELISA
B7: NBX0828 (VHH)
VHH: QVQLQESGGGAVQAGGSLRLSCAGPRSIFSGNAMAWYRQVPGKQRETVATVNTGGLTWYGDFVKGRFTISRDDAKNTLLLQMDSLKPEDTAVYYCNAVLVRARGMWGQGTQVTVSS
notes: on phage in the phage ELISA
B8: NBX0649 (VHH)
VHH: QVQLQQSGGGLVQPGGSLTLSCAASGSIASGNVLGWYRQAPGKQRELVATITSGGLTHYKDSVKGRFTISRDNAKNMVFLQMNSLKPEDTAVYYCNYRRLATGYWGQGTQVTVSS
notes: on phage in the phage ELISA
B9: NBX0626 (VHH)
VHH: QVQLQQSGGGLVQAGGSLRLACAVSETTLATNAMAWYRQAQGKRREWVATISSVSSGGITNYSGSVKGRFTISRDNAKNTVFLQMNSLQPEDTAVYYCNGVRRGRSYWGQGTQVTVSS
notes: on phage in the phage ELISA
B10: NBX0840 (VHH)
VHH: QVQLQQSGGGLVQAGGSLRLSCAASGSIRSSNVMGWYRQTPGKQRELVATMTAGGLTNYADSVKGRFTISRDNAKNTVYLQMNSLKPEDTAVYYCHYRRIFNVYWGQGTQVTVSS
notes: on phage in the phage ELISA
B11: NBX0841 (VHH)
VHH: QVQLQESGGGLVQAGGSLRLSCAASARTFIYKMGWFRQAPGKERDFVASIMWSVGNNYYYTDSAKGRFTISRDIAKNTMYLQMDSLEPEDTGEYYCAAATTSTQWRYWGQGTQVTVSS
notes: on phage in the phage ELISA
B12: NBX0648 (VHH)
VHH: QVQLQESGGGLVQAGGSLRLSCEASGIIFSSNVMGWYRQAPGKQRELVASRTSGGLTNYADSAKGRFTISRDNAKNTVYLQMNSLKPEDTAVYYCNARRLFTNYWGQGTQVTVSS
notes: on phage in the phage ELISA
B13: NBX0640 (VHH)
VHH: QVQLQESGGGLVQPGGSLRLSCAASGSIFSGNVMGWYRQVPGKQRDLVATITGGGITRYADSVKGRFTISRDNAKNTVYLQMNSLKPEDTAVYYCHYRRIMQQYWGQGTQVTVSS
notes: on phage in the phage ELISA
B14: NBX0646 (VHH)
VHH: QVQLQESGGGLVQAGGSLRLSCAASGSIFSGNVMGWYRQVPGNQRELVATITGGGVTRYADSVKARFTISRDNAKNTVYLQMNSLKPEDTAVYYCHYRRIMQQSWGQGTQVTVSS
notes: on phage in the phage ELISA
B15: NBX0643 (VHH)
VHH: QVQLQESGGGLVQAGGSLRLSCEASGSIFSGNVMGWYRQVPGKQRDLVATMTGGGVTRYADSVKARFTISRDNAKNTVYLQMNSLKPEDTGVYYCHYRRIMQQYWGQGTQVTVSS
notes: on phage in the phage ELISA
B16: NBX0644 (VHH)
VHH: QVQLQESGGGLVQAGGSLRLSCAASGSIFSGNVMGWYRQVPGKQRDLVATITGGGITRYADSVKGRFTISRDNAKNKVYLQMNGLKPEDTAVYFCFYRRIMQQYWGQGTQVTVSS
notes: on phage in the phage ELISA
B17: NBX0638 (VHH)
VHH: QVQLQESGGGLVQAGGSLRLSCAASGSIFSGNVMGWYRQVPGKQRDLVATITGGGITRYADSVKGRFTISRDNAKNTVYLQMNSLKPEDTAVYYCNYRRIMQQYWGKGTLVTVSS
notes: on phage in the phage ELISA
B18: NBX0647 (VHH)
VHH: QVQLQESGGGSVPPGGSLRLSCAASGSIFSGNVMAWYRQVPGKQRDLVASMTGGGVTRYADSVIARFTISRDNVKNTVYLQMNSLKPEDTAVYYCHYRRIMQQYWGQGTQVTVSS
notes: on phage in the phage ELISA
B19: NBX0645 (VHH)
VHH: QVQLQESGGGLVQAGGSLRLSCAASGSIFSGNVMGWYRQVPGKQRDLVATITGGGITHYADSVKGRFTISRDNAKNTVYLQMNSLKPEDTAVYYCLYRRIMQQYWGQGTQVTVSS
notes: on phage in the phage ELISA
B20: NBX0650 (VHH)
VHH: QVQLQESGGGLVQAGGSLRLSCEASGSIFSGNVLGWYRQVPGKQRDLVATITGGGITRYADSVKGRFTISRDNAKNTVYLQMNALKPEDTAVYYCHYRRIMQQYWGQGTQVTVSS
notes: on phage in the phage ELISA
B21: NBX09011 (VHH)
VHH: QVQLQESGGGLVQPGESLRLSCAASTSGFSSYVMAWYRQAPGKQRELVASMTTGGLTNYADSVKGRFTISRDNAKNTVYLQMNSLKPEDTAAYYCNARRLWNAYWGQGTQVTVSS
notes: on phage in the phage ELISA
B22: NBX0614 (VHH)
VHH: QVQLQQSGGGLVQAGGSLRLSCAASGSSFRSNAIGWYRQFPGKSRELIAVITRSGSTQYADSVKGRFTASRDNAKNMIYLQMNNLKLEDTAVYYCHDETMKLISVKNDYWGQGSQVTVSS
notes: on phage in the phage ELISA
B23: NBX0627 (VHH)
VHH: QVQLQQSGGGLVQAGGSLRLSCAASGSSFRSNAIGWYRQSPGKSRELIAVITRSGSTQYADSVKGRFTASRDNAKNMIYLQMNSLKPEDTAVYYCHDETMKLITGKNDYWGQGTQVTVSS
notes: on phage in the phage ELISA
B24: NBX0836 (VHH)
VHH: QVQLQQSGGGLVQPGGSLRLSCSASGIRLGSYVMGYYRQAPGKQRELVATVTSGGTTNRADSVKGRFTISRDNAKNAVYLQMNSLKPEDTAVYYCNARILFTNYWGQGTQVTVSS
notes: on phage in the phage ELISA

Target: T1, PirB (Vibrio parahaemolyticus)
T1 construct: also called JHE-like toxin PirB-like
T1 chain: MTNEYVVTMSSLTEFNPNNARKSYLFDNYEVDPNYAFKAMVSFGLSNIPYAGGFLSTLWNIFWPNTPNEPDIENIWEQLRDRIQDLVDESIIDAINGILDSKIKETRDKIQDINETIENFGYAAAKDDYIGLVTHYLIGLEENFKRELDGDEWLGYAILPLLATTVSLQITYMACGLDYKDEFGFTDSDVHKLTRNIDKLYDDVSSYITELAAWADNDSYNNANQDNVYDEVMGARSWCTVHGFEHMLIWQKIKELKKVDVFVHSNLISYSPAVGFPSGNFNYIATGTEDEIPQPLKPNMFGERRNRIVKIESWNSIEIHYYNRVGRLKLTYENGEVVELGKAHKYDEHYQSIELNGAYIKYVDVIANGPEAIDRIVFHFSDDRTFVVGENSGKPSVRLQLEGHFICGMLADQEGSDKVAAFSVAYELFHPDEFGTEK
Test: phage ELISA, antigen-coated wells

Binder | binding above PBS-coated wells
B1 | ≥ 50%
B2 | ≥ 50%
B3 | ≥ 50%
B4 | ≥ 50%
B5 | ≥ 50%
B6 | ≥ 50%
B7 | ≥ 50%
B8 | ≥ 50%
B9 | ≥ 50%
B10 | ≥ 50%
B11 | ≥ 50%
B12 | ≥ 50%
B13 | ≥ 50%
B14 | ≥ 50%
B15 | ≥ 50%
B16 | ≥ 50%
B17 | ≥ 50%
B18 | ≥ 50%
B19 | ≥ 50%
B20 | ≥ 50%
B21 | ≥ 50%
B22 | ≥ 50%
B23 | ≥ 50%
B24 | ≥ 50%
